# Assay results taken from US20100239578A1.
# Several values for one entry are separate records, joined by “and”; a condition that tells them apart may be missing. Identical values can stand only once.
# Key:
# [1] = molecular target: NOD-derived murine SIRPα (NOD allele of Sirpα) on NOD mouse macrophages (mouse (NOD strain)) (UniProt P97797); experiment: graded hCD47-Fc on unmanipulated fresh NOD macrophages (unclustered), anti-human Fc-HRP colorimetric read-out
# [2] = molecular target: NOD-derived murine SIRPα (NOD allele of Sirpα) on NOD mouse macrophages (mouse (NOD strain)) (UniProt P97797); experiment: graded hCD47-Fc on NOD macrophages, clustered (anti-SIRPα mAb pre-treatment) against unclustered
# [3] = molecular target: NOD-derived murine SIRPα (NOD allele of Sirpα) on NOD mouse macrophages (mouse (NOD strain)) (UniProt P97797); experiment: graded hCD47-Fc on NOD macrophages pre-treated with a monoclonal antibody to the SIRPα ectodomain (clustered), anti-human Fc-HRP colorimetric read-out
# [4] = molecular target: NOD-derived murine SIRPα (NOD allele of Sirpα) on NOD mouse macrophages (mouse (NOD strain)) (UniProt P97797); experiment: graded mCD47-Fc on adherent fresh macrophages, anti-human Fc-HRP colorimetric read-out
# UniProt P97797, sequence (P97797 32-513): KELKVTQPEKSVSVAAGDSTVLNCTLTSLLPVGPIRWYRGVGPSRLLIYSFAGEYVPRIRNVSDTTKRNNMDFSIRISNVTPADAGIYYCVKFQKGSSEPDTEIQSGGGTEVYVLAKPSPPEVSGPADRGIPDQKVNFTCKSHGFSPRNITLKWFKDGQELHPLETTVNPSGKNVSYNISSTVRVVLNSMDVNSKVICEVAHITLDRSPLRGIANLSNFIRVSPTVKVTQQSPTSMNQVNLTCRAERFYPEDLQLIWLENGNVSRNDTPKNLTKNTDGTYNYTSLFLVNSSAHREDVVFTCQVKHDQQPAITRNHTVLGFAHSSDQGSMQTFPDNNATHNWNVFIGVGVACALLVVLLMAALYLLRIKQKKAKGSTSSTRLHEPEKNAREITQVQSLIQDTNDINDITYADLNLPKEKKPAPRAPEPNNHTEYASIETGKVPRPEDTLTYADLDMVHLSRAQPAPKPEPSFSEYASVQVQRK
Kd [1] [nM],"fold rise in affinity, clustered against unclustered [2] [fold]",Kd [3] [nM],fold lower Kd than the NOR SIRPα-mCD47 interaction [4],Substance
1.6,> 10,0.16,,"human CD47 IgV domain fused to human IgG Fc (hCD47-Fc), made in 293F cells (from UniProt Q08722 19-135) (Fc fusion)"
,,,4.7 fold and > 4 fold,Mouse CD47-Fc (mCD47-Fc) fusion protein (from UniProt Q61735 19-133) (Fc fusion)
